Here are results for five molecules from paper PMC6412114.

The target of data set [1] is T1, IDH1 (UniProt O75874 1-414). Kind of data set: EMSA. (A gel shift assay detects complexes by their altered migration in electrophoresis.)
Data set [2] concerns the target T1, IDH1. The data set can be described thus: EMSA. This is another data set of the same source.

What is called Kd is a measure of binding affinity in units of concentration.

T1 sequence (O75874 whole entry): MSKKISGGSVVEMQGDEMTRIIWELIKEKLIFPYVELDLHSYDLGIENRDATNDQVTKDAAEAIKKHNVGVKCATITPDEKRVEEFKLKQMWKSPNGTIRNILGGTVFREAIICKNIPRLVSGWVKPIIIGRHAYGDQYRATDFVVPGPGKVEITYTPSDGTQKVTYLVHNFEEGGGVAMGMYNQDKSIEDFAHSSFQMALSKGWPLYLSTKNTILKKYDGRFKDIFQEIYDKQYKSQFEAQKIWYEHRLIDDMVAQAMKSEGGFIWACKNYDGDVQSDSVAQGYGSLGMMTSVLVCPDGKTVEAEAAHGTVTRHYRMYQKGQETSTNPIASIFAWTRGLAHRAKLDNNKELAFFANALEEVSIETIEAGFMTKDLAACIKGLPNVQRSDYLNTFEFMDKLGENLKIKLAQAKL

Consider GGAUCCAUUUAUUUAUUUAUUUAAGCUUGG (ssRNA) [AU-rich ssRNA], for which the dissociation constant Kd in data set [1] is 0.68 ± 0.07 µM.

B1: AU-rich dsDNA (dsDNA)
DNA 1: GGATCCATTTATTTATTTATTTAAGCTTGG
DNA 2: CCTAGGTTAAATAAATAAATAAATCGATCC
As to B1, the binding result in data set [2] is “no binding”.
On the same count and under the same terms, next, GGATCCATTTATTTATTTATTTAAGCTTGG (ssDNA) [AU-rich ssDNA]: “no binding”.

B2: AU-rich dsRNA (dsRNA)
RNA 1: GGAUCCAUUUAUUUAUUUAUUUAAGCUUGG
RNA 2: CCUAGGUUAAAUAAAUAAAUAAAUCGAUCC
Take B2: the binding result in data set [2] is “no binding”.

B3: AU-rich DNA/RNA hybrid (DNA:RNA)
RNA: B2 RNA 1
DNA: B1 DNA 2
On to B3, for which the binding result in data set [2] is on record as “no binding”.
